Reference: patent publication US20200283536A1 (Pfizer, published 2020)
Read-outs that look alike come from different tables or passages of the source.

B1: h18G3-AcLysValCitPABC-DMAE-CO_CPI-000638314 (antibody, IgG1, V domains shown)
VH: EVQLVESGGGLVQPGGSLRLSCAASGFSLTSGDISWVRQAPGKGLEWVAVIWSGGGTNYGSRLMSRFTISRDNAKNSLYLQMNSLRAEDTAVYYCARDWGNFYFDYWGQGTLVTVSS
VL: DIQMTQSPSSLSASVGDRVTITCKSSQSLLSSGTRKNYLAWYQQKPGKAPKLLIYWASTRQSGVPSRFSGSGSGTDFTLTISSLQPEDFATYYCSQSYNLYTFGQGTKLEIKR
modifications: AcLysValCitPABC-DMAE-CO_CPI linker-agent conjugated site-specifically at Q296 (LLQG tag), DAR ~2
B2: 18G3 conjugated to CTI (glucuronide) (antibody, V domains shown)
VH: EVQLVESGGGLVQPGGSLRLSCAASGFSLTSGDISWVRQAPGKGLEWVAVIWSGGGTNYGSRLMSRFTISRDNAKNSLYLQMNSLRAEDTAVYYCARDWGNFYFDYWGQGTLVTVSS
VL: DIQMTQSPSSLSASVGDRVTITCKSSQSLLSSGTRKNYLAWYQQKPGKAPKLLIYWASTRQSGVPSRFSGSGSGTDFTLTISSLQPEDFATYYCSQSYNLYTFGQGTKLEIKR
modifications: CTI (glucuronide) agent conjugated; linker and site not stated
B3: 18G3 conjugated to iPr-calicheamicin (antibody, V domains shown)
VH: EVQLVESGGGLVQPGGSLRLSCAASGFSLTSGDISWVRQAPGKGLEWVAVIWSGGGTNYGSRLMSRFTISRDNAKNSLYLQMNSLRAEDTAVYYCARDWGNFYFDYWGQGTLVTVSS
VL: DIQMTQSPSSLSASVGDRVTITCKSSQSLLSSGTRKNYLAWYQQKPGKAPKLLIYWASTRQSGVPSRFSGSGSGTDFTLTISSLQPEDFATYYCSQSYNLYTFGQGTKLEIKR
modifications: iPr-calicheamicin conjugated; linker and site not stated
B4: 3D1-CPI (antibody, V domains shown)
VH: EVQLQQSGPELVKPGASVKMSCKASGYTFSDYFMKWVKQSHGKRLEWIGDINPNNGETFYNHHFKGKATLTIDKSSSTAYMQLNSLTSDDSAVYYCARPRRGNAMDFWGQGTSVTVSS
VL: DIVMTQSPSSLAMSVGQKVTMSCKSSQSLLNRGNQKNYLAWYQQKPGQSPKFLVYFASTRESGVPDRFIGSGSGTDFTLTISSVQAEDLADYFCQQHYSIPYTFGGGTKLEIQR
modifications: CPI agent through an AcLysValCitPABC linker, DAR ~2; site not stated for this antibody
B5: 20D7-CPI (antibody, V domains shown)
VH: EVQLVESGGGLVQPGGSLRLSCAASGYSITDFLMYWVRQAPGKGLEWVAWIDPEDGETKYAQKFQSKARFTISRDNAKNSLYLQMNSLRAEDTAVYYCARWGYITDYFYGGFTYWGRGTLVTVSS
VL: DIQMTQSPPVLSASVGDRVTLSCKASQNINKNLDWYQQKHGEAPKLLIYHTNTLQMGIPSRFSGSGSGTDYALTITSLQPEDVATYYCYQYNSGPTFGAGTKLELRR
modifications: CPI agent through an AcLysValCitPABC linker, DAR ~2; site not stated for this antibody
B6: 16D6-CPI (antibody, V domains shown)
VH: QVQLKESGPGLVAPSQSLSITCTVSGFSLTNFDISWIRQPPGKGLEWLGVMWTGGGTNYNSAFMSRLSISRDISKSQVSLKMSSLQTDDTAIYYCVRGDTYFFAMDYWGQGTSVTVSS
VL: DIVMSQSPSSLAVSAGEKVTMSCKSSQSLLSSGTRKNFLSWYQQKTGQSPKLLIYWASTRGSGVPDRFTGSGSGTDFTLTISSVQTEDLAVYYCKQSYNLYTFGGGTKLEIKR
modifications: CPI agent through an AcLysValCitPABC linker, DAR ~2; site not stated for this antibody

Key:
Experiment in all cases: cell-based or functional assay
[1] = target: T1, CD123 (alpha chain of the interleukin-3 receptor) (human, UniProt P26951 19-378)
[2] = target: T1, CD123 (alpha chain of the interleukin-3 …); remark: listed apart in the source
[3] = target: T1, CD123 (alpha chain of the interleukin-3 …); remark: listed apart in the source
[4] = target: T1, CD123 (alpha chain of the interleukin-3 …); remark: listed apart in the source

T1 sequence (P26951 19-378): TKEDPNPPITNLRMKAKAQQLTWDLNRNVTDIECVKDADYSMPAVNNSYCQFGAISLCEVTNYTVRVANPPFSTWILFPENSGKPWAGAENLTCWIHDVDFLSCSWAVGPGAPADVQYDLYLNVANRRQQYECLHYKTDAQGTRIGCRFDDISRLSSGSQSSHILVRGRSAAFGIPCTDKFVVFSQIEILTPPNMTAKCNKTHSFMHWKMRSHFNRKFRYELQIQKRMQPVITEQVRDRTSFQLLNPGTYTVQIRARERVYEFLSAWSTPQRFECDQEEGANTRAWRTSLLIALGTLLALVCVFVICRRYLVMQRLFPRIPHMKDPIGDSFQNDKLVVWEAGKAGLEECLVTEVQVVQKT

| Binder | IC50 (ng/mL), cytotoxicity in MOLM13 cells, IL-3 at 0 ng/ml [1] | IC50 (ng/mL), cytotoxicity in MOLM13 cells, IL-3 at 0.3 ng/ml [1] | IC50 (ng/mL), cytotoxicity in MOLM13 cells, IL-3 at 1 ng/ml [1] | IC50 (ng/mL), cytotoxicity in MV4-11 cells, IL-3 at 0 ng/ml [1] | IC50 (ng/mL), cytotoxicity in MV4-11 cells, IL-3 at 0.3 ng/ml [1] | IC50 (ng/mL), cytotoxicity in MV4-11 cells, IL-3 at 1 ng/ml [1] | IC50 (ng/mL), 2D in vitro cytotoxicity (CelltiterGlo, 96 hours), JVM3 cells (CD123 ++) [2] | IC50 (ng/mL), 2D in vitro cytotoxicity (CelltiterGlo, 96 hours), MOLM13 cells (CD123 +++) [2] | IC50 (ng/mL), 2D in vitro cytotoxicity (CelltiterGlo, 96 hours), MV411 cells (CD123 +++) [2] | other results |
| --- | --- | --- | --- | --- | --- | --- | --- | --- | --- | --- |
| B1 | 0.14 ng/mL | 0.12 ng/mL | 0.14 ng/mL | 1.07 ng/mL | 1.05 ng/mL | 0.21 ng/mL | 0.69 ng/mL | 0.25 ng/mL | 0.41 ng/mL | IC50 (ng/mL), 2D in vitro cytotoxicity (CelltiterGlo, 96 hours), Granta519 cells (CD123 ++) [2]: 0.38 ng/mL; IC50 (ng/mL), 2D in vitro cytotoxicity (CelltiterGlo, 96 hours), NB4 cells (CD123 +) [2]: 63.9 ng/mL; IC50 (ng/mL), 2D in vitro cytotoxicity (CelltiterGlo, 96 hours), OCI-AML3 cells (CD123 +) [2]: 2.65 ng/mL |
| B2 |  |  |  |  |  |  |  |  |  | IC50 (ng/mL), in vitro cytotoxicity, Granta519 cells (CD123 ++) [3]: 0.26 ng/mL; IC50 (ng/mL), in vitro cytotoxicity, JVM3 cells (CD123 ++) [3]: 1.3 ng/mL; IC50 (ng/mL), in vitro cytotoxicity, MOLM13 cells (CD123 +++) [3]: 0.33 ng/mL; IC50 (ng/mL), in vitro cytotoxicity, MV411 cells (CD123 +++) [3]: 0.51 ng/mL; IC50 (ng/mL), in vitro cytotoxicity, NB4 cells (CD123 +) [3]: 38.6 ng/mL; IC50 (ng/mL), in vitro cytotoxicity, OCI-AML3 cells (CD123 +) [3]: 2.58 ng/mL |
| B3 |  |  |  |  |  |  |  |  |  | IC50 (ng/mL), in vitro cytotoxicity, MOLM13 cells (CD123 +++) [4]: 0.0508 ng/mL; IC50 (ng/mL), in vitro cytotoxicity, MV4-11 cells (CD123 +++) [4]: 0.125 ng/mL |
| B4 |  |  |  |  |  |  |  | 0.33 ng/mL |  |  |
| B5 |  |  |  |  |  |  |  | 0.32 ng/mL |  |  |
| B6 | 0.23 ng/mL | 0.23 ng/mL | 0.19 ng/mL | 1.25 ng/mL | 1.13 ng/mL | 1.13 ng/mL | 0.59 ng/mL | 0.22 ng/mL | 0.4 ng/mL |  |
